From paper PMC3235118, “Juvenile Hormone (JH) Esterase of the Mosquito Culex quinquefasciatus Is Not a Target of the JH Analog Insecticide Methoprene” (PLoS ONE, 2011)

Assays:
CqJHE [1] = target: T1, CqJHE (Culex quinquefasciatus, UniProt R4HZP1); assay: JH III partition assay (radiolabelled JH III), […] min preincubation; format: biochemical
T1 construct: gene jhe; full-length cDNA (ORF 1746 nt) from 4th instar larvae, predicted 19-residue signal peptide removed on secretion, mature 563 residues, 63,430 Da; recombinant baculovirus AcCqJHE in High Five cells, secreted
T1 sequence (R4HZP1 20-582): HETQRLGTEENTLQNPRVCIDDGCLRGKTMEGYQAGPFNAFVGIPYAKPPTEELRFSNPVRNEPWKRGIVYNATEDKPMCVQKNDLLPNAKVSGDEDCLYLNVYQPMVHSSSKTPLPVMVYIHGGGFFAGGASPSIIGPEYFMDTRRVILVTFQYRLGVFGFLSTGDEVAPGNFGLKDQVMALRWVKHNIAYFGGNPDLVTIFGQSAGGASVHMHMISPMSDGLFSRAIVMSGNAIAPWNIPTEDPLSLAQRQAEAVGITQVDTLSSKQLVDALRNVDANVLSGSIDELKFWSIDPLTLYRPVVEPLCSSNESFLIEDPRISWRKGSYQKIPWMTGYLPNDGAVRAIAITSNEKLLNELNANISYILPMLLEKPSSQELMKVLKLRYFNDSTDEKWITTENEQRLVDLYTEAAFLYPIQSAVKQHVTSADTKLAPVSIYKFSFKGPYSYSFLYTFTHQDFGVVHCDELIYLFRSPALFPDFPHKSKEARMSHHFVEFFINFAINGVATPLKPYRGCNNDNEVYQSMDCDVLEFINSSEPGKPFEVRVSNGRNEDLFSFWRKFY

CqJHE [2] = target: T1, CqJHE; assay: competition in JH III partition assay; format: biochemical
[3] = substrate: COC(=O)/C=C(\C)CC/C=C(\C)CC[C@H]1OC1(C)C; assay: JH III partition assay (radiolabelled JH III); format: biochemical, Culex quinquefasciatus; conditions: 50 mM sodium phosphate pH 7.4, 30°C
From the text: JH III partition assay (radiolabelled JH III) on CqJHE

[4] = substrate: CC(=O)Oc1ccc([N+](=O)[O-])cc1; assay: spectrophotometric, OD405; format: biochemical, Culex quinquefasciatus; conditions: 50 mM sodium phosphate pH 7.4, 30°C
From the text: spectrophotometric, OD405 on CqJHE

[5] = substrate: CC(=O)Oc1cccc2ccccc12; assay: spectrophotometric, OD450; format: biochemical, Culex quinquefasciatus; conditions: glycine-NaOH pH 9.0, 30°C
From the text: spectrophotometric, OD450 on CqJHE

CCCCCCCCSCC(=O)C(F)(F)F [OTFP, 3-octylthio-1,1,1-trifluoropropan-2-one]
IC50 (CqJHE [1]): 230 ± 50 pM

CCOC(=O)/C=C(C)/C=C/C[C@@H](C)CCCC(C)C [hydroprene]
inhibition at 5 µM (CqJHE [2]): 40%

C#CCOC(=O)/C=C(C)/C=C/CC(C)CCCC(C)C (stereo not drawn) [kinoprene]
inhibition at 5 µM (CqJHE [2]): 50%

B1: CqJHE (Culex quinquefasciatus) (protein)
chain: T1 sequence (R4HZP1 20-582)
notes: full-length cDNA (ORF 1746 nt) from 4th instar larvae, predicted 19-residue signal peptide removed on secretion, mature 563 residues, 63,430 Da; recombinant baculovirus AcCqJHE in High Five cells, secreted
Km [3]: 0.13 ± 0.02 µM
Vmax [3]: 1.2 µmol/min/mg
kcat [3]: 1.3 s⁻¹
kcat/Km [3]: 1e+07 M⁻¹ s⁻¹
Km [4]: 340 ± 17 µM
Vmax [4]: 120 µmol/min/mg
kcat [4]: 130 s⁻¹
kcat/Km [4]: 380000 M⁻¹ s⁻¹
Km [5]: 2960 ± 420 µM
Vmax [5]: 20 µmol/min/mg
kcat [5]: 21 s⁻¹
kcat/Km [5]: 7100 M⁻¹ s⁻¹
